Experimental findings from paper PMC7771068 are described below.

Assay in all cases: MST
One series addresses A3G-NTD-R24A-CTD2 (Homo sapiens, UniProt Q9HC16 1-384, R24A;P200A;L234K;N236A;C243A;P247K;F310K;Q318K;C321A;Q322K;C356A).
Series [1] deals with T1, A3G-NTD-CTD2 (wild-type NTD fused to soluble CTD2) (Homo sapiens, UniProt Q9HC16 1-384, P200A;L234K;N236A;C243A;P247K;F310K;Q318K;C321A;Q322K;C356A).
Series [2] addresses T1, A3G-NTD-CTD2 (wild-type NTD fused to …). This is another data set of the same source.
For series [3] the target is unchanged. The source holds these as a separate data set.

For orientation: Kd means the constant that tells how readily two partners part at equilibrium. Higher therefore signals weaker binding.

Like-named read-outs stand apart in the source and are kept apart here.

T1 sequence (Q9HC16 whole entry P200A/L234K/N236A/C243A/P247K/F310K/Q318K/C321A/Q322K/C356A, the tested form may be a part): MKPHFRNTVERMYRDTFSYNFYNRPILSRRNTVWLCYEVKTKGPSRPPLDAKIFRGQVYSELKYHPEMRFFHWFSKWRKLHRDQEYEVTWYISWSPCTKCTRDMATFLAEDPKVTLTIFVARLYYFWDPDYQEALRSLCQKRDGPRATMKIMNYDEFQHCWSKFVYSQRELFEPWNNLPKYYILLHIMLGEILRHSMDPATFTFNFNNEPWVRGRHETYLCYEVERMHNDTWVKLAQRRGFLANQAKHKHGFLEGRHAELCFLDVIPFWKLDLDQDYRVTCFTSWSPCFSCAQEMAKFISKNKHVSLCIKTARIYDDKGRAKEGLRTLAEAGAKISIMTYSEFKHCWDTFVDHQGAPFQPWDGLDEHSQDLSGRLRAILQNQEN
Sequence of A3G-NTD-R24A-CTD2 (Q9HC16 whole entry R24A/P200A/L234K/N236A/C243A/P247K/F310K/Q318K/C321A/Q322K/C356A, the tested form may be a part): as the sequence (Q9HC16 whole entry P200A/L234K/N236A/C243A/P247K/F310K/Q318K/C321A/Q322K/C356A, the tested form may be a part) above, with R24A counted along it

B1: 16-nt CCC (5'-TCCC-polyT) (ssDNA)
DNA: AATCCCAATTTTTTTT
Turning to B1, the dissociation constant Kd with A3G-NTD-R24A-CTD2 worked out at 24.6 ± 2.7 µM; in series [1] it was 4.9 ± 0.1 µM; in series [2], 6.8 µM.

B2: 16-nt CC (5'-TCC-polyT) (ssDNA)
DNA: AATTCCAATTTTTTTT
On to B2, for which the results for the equilibrium dissociation constant (Kd) (with A3G-NTD-R24A-CTD2; in series [1]) were 132 ± 2.6 µM and 31.4 ± 3.8 µM, respectively.

B3: 9-nt CCC (ssDNA)
DNA: AATCCCAAA
As to B3, the Kd in series [3] was found to be 20.5 µM.
